Substrate in data set [1]: COc1cc(C(=O)[C@@H](CO)SC[C@H](NC(=O)CC[C@H](N)C(=O)O)C(=O)NCC(=O)O)ccc1O
As to the kind of experiment: Kinetics of GS-HPV cleavage into HPV by ecYfcG. It counts as biochemical, Escherichia coli DH5α. The note with it: other: GS-HPV into HPV, 195 nM enzyme, GSH, pH 8.5, 25° C. From the text:
(§1) Enzyme purifications. Genes Saro_2595, E. coli yghU, E. coli yfcG, and SLG_04120 from Sphingobium sp. SYK-6 (codon-optimized for expression in E. coli) were individually cloned into plasmid pVP302K (Gall and Ralph et al. 2014) so that transcripts from the plasmids would be translated into proteins containing a His8-tag connected to the N-terminus via a tobacco etch virus (TEV) protease recognition site. Recombinant proteins were expressed in E. coli B834 (Wood 1966, Doherty et al. 1995) containing plasmid pRARE2 (Novagen, Madison, Wis.) grown for ˜24 h at 27° C. in ZYM-5052 Autoinduction Medium (Studier 2005) containing kanamycin and chloramphenicol. Recombinant proteins were purified essentially as described previously (Gall and Kim et al. 2014); see below for modifications to the procedure. After removal of His8-tags using TEV protease, recombinant proteins retained a Ser-Ala-Ile-Ala-Gly-peptide on their N-termini, derived from the linker between the protein and the TEV protease recognition site. Recombinant LigE and LigF1 from N. aromaticivorans were purified as previously described (Gall and Ralph et al. 2014).
(§2) Kinetics analysis of GS-HPV cleavage. The Reaction Buffer (RB) consisted of 25 mM Tris-HCl (pH 8.5) and 25 mM NaCl. The β(R)- and β(S)-stereoisomers of GS-HPV were separately generated by incubating racemic MPHPV (0.46 mM) in RB with 5 mM reduced glutathione (GSH) and either 38 μg/mL LigF1 or 36 μg/mL LigE, respectively, for several h. This sample, containing a single GS-HPV stereoisomer, guaiacol, and the unreacted MPHPV stereoisomer, was diluted with RB to achieve the desired concentration of GS-HPV for the time course reaction (0.005, 0.011, 0.022, 0.096, or 0.193 mM). An additional 5 mM GSH (dissolved in RB) was added prior to initiation of each time course. At time zero, 100 μL of the indicated enzyme sample (resuspended in RB) was combined with 1800 μL of the diluted GS-HPV reaction mixture to achieve final concentrations of 8 nM NaGSTNu, 195 nM ecYghU, 195 nM ecYfcG, or 47 nM (for β(R)-GS-HPV reactions) or 18 nM (for β(S)-GS-HPV reactions) SYK6GSTNu. Assays were performed at 25° C., and at specified time points, 300 μL of the reaction was removed and combined with 100 μL 1 M HCl (Acros Organics; Geel, Belgium) to stop the reaction before HPLC analysis to quantify HPV formed.
(§3) HPLC analysis. After extracellular aromatics were identified using LC-MS, routine analysis and quantification of aromatics were performed using an Ultra AQ C18 5 μm column (Restek, Bellefonte, Pa.) attached to a System Gold HPLC (Beckman Coulter, Brea, Calif.) with running buffers and chromatography conditions described in FIG. 14. The eluent was analyzed for light absorbance between 191 and 600 nm, and absorbances at 280 nm were used for quantification of aromatic metabolites by comparing peak areas to those of standards (retention times of measured metabolites are shown in FIG. 15).

Substrate in data set [2]: COc1cc(C(=O)[C@H](CO)SC[C@H](NC(=O)CC[C@H](N)C(=O)O)C(=O)NCC(=O)O)ccc1O
As to the kind of experiment: Kinetics of GS-HPV cleavage into HPV by ecYfcG. It is filed as biochemical, Escherichia coli DH5α. As to conditions: other: GS-HPV into HPV, 195 nM enzyme, GSH, pH 8.5, 25° C.
Excerpt: as §1, §2, §3

A short description of data set [3]: Kinetics of GS-HPV cleavage, comparisons between enzymes over both stereoisomers. It is filed as biochemical. As to the method:
as §2, §3

Substrate in data set [4]: COc1cc(C(=O)[C@@H](CO)SC[C@H](NC(=O)CC[C@H](N)C(=O)O)C(=O)NCC(=O)O)ccc1O
Nature of the data set: Kinetics of GS-HPV cleavage into HPV by ecYghU. As to conditions: other: GS-HPV into HPV, 195 nM enzyme, GSH, pH 8.5, 25° C. It is filed as biochemical, Escherichia coli DH5α.
Excerpt: as §1, §2, §3

Substrate in data set [5]: COc1cc(C(=O)[C@H](CO)SC[C@H](NC(=O)CC[C@H](N)C(=O)O)C(=O)NCC(=O)O)ccc1O
Nature of the data set: Kinetics of GS-HPV cleavage into HPV by ecYghU. It counts as biochemical, Escherichia coli DH5α. As to conditions: other: GS-HPV into HPV, 195 nM enzyme, GSH, pH 8.5, 25° C.
Excerpt: as §1, §2, §3

Substrate in data set [6]: COc1cc(C(=O)[C@@H](CO)Oc2ccccc2OC)ccc1O
Nature of the data set: Kinetics of the enzymatic cleavage of β(R)-MPHPV by BaeA (2:S14A/3:S15A). It counts as biochemical, Novosphingobium aromaticivorans. The note with it: other: β(R)-MPHPV into GS-HPV, 24 nM dimeric enzyme, 5 mM GSH, pH 8.0, 25° C. As to the method:
To generate mutant […], pVP302K/2873-H2872(S14A) was amplified by kinase phosphorylated primers “Saro2873-S15A_R” and “Saro2873-S15A_F”. The linear fragment was circularized using T4 DNA ligase to generate plasmid pVP302K/2873(S15A)-H2872(S14A).
Expression and purification of recombinant enzymes. Recombinant proteins were expressed using the plasmids described above in E. coli B834 containing plasmid pRARE2 (Novagen) grown for ˜25 hours at 25° C. in ZYM-5052 Autoinduction Medium containing kanamycin and chloramphenicol. Recombinant proteins were purified using a Ni^2+-NTA column as described in Example 1 above, except using gravity-flow columns instead of an FPLC system. After removal of His8-tags using Tev protease, recombinant proteins retained a Ser-Ala-Ile-Ala-Gly-peptide on their N-termini, derived from the linker between the protein and the Tev protease recognition site. Recombinant LigF1 was purified as previously described (Gall and Ralph et al. 2014).
Kinetics of the enzymatic cleavage of β(R)-MPHPV. Various concentrations of racemic MPHPV (equal amounts of the β(S)- and β(R)-stereoisomers) were combined with 5 mM GSH in RB. At time zero, 100 μL of a given enzyme in RB+5 mM GSH was combined with 1000 μL of the racemic MPHPV/GSH sample at 25° C. (both samples were equilibrated to 25° C. before mixing). Final concentrations of β(R)-MPHPV in each reaction were 0.0045, 0.010, 0.017, 0.068, or 0.13 mM. […] At specified time points, 200 μL of a reaction was removed and combined with 40 μL of 1 M HCl (Acros Organics) to stop the reaction before HPLC analysis to quantify GS-HPV formed. […]
HPLC analysis. Analysis and quantification of aromatic compounds were performed using an Ultra AQ C18 5 μm column (Restek) attached to a System Gold HPLC (Beckman Coulter) with running buffers and methods described in Example 1. The eluent was analyzed for light absorbance between 191 and 600 nm, and absorbances at 280 nm were used for quantification of aromatic metabolites by comparing peak areas to those of standards.

Substrate in data set [7]: COc1cc(C(=O)[C@@H](CO)SC[C@H](NC(=O)CC[C@H](N)C(=O)O)C(=O)NCC(=O)O)ccc1O
Nature of the data set: Kinetics of GS-HPV cleavage into HPV by NaGSTNu. It is filed as biochemical, Novosphingobium aromaticivorans DSM 12444. The note with it: other: GS-HPV into HPV, 8 nM enzyme, GSH, pH 8.5, 25° C.
Excerpt: as §1, §2, §3

Substrate in data set [8]: COc1cc(C(=O)[C@H](CO)SC[C@H](NC(=O)CC[C@H](N)C(=O)O)C(=O)NCC(=O)O)ccc1O
As to the kind of experiment: Kinetics of GS-HPV cleavage into HPV by NaGSTNu. It counts as biochemical, Novosphingobium aromaticivorans DSM 12444. As to conditions: other: GS-HPV into HPV, 8 nM enzyme, GSH, pH 8.5, 25° C.
Excerpt: as §1, §2, §3

This is an account of results in patent US11447754B2, “In vitro methods of chemical conversion using non-stereospecific glutathione lyases” (WISCONSIN ALUMNI RESEARCH FOUNDATION, priority 2017, dated 2022).

B1: Escherichia coli ecYfcG, Nu-class glutathione-S-transferase, wild type, SEQ ID NO:30 (Escherichia coli K-12) (protein)
chain: MIDLYFAPTPNGHKITLFLEEAELDYRLIKVDLGKGGQFRPEFLRISPNNKIPAIVDHSPADGGEPLSLFESGAILLYLAEKTGLFLSHETRERAATLQWLFWQVGGLGPMLGQNHHFNHAAPQTIPYAIERYQVETQRLYHVLNKRLENSPWLGGENYSIADIACWPWVNAWTRQRIDLAMYPAVKNWHERIRSRPATGQALLKAQLGDERSDS
notes: E. coli B834
For the molecule B1, in data set [1], the Km – broadly, the substrate concentration at which the rate is half of its maximum – worked out at 160 µM; the catalytic constant (kcat) (in general, the number of substrate molecules converted per active site and unit of time at saturation) was determined as 0.04 s⁻¹; the kcat/Km – broadly, the turnover number divided by the Michaelis constant – stood at 200 M⁻¹ s⁻¹. Further, in data set [2], the Michaelis constant (Km) worked out at 130 µM, the kcat was determined as 0.017 s⁻¹ and the kcat/Km was determined as 140 M⁻¹ s⁻¹.

B2: ecYfcG: Nu-class GST from Escherichia coli DH5a, SEQ ID NO:30 (protein, listed as Escherichia coli)
chain: B1 chain
Consider B2, for which, in data set [3], the “KM, fold higher than those of ecYghU” value is on record as about 10 fold; the “kcat, fold lower than those of ecYghU” value is about 10 fold; the “kcat/KM with GS-HPV, fold lower than for ecYghU” value is about 100 fold; the “kcat/KM with GS-HPV, fold lower than those of NaGSTNu” value was ~10^4 fold.

B3: Escherichia coli ecYghU, Nu-class glutathione-S-transferase, wild type, SEQ ID NO:26; recombinant, residues 21-313 of SEQ ID NO:28 (Escherichia coli K-12) (protein)
chain: MTDNTYQPAKVWTWDKSAGGAFANINRPVSGPTHEKTLPVGKHPLQLYSLGTPNGQKVTIMLEELLALGVTGAEYDAWLIRIGDGDQFSSGFVEVNPNSKIPALRDHTHNPPIRVFESGSILLYLAEKFGYFLPQDLAKRTETMNWLFWLQGAAPFLGGGFGHFYHYAPVKIEYAINRFTMEAKRLLDVLDKQLAQHKFVAGDEYTIADMAIWPWFGNVVLGGVYDAAEFLDAGSYKHVQRWAKEVGERPAVKRGRIVNRTNGPLNEQLHERHDASDFETNTEDKRQG
notes: E. coli B834
As for B3, in data set [4], the Michaelis constant (Km) amounted to 28 µM, the kcat is 0.43 s⁻¹ and the kcat/Km was found to be 16000 M⁻¹ s⁻¹. For the same molecule, in data set [5], the Michaelis-Menten constant (Km) is 12 µM, the kcat was found to be 0.29 s⁻¹ and the kcat/Km was determined as 24000 M⁻¹ s⁻¹. For the same molecule, the “kcat/KM with GS-HPV, fold lower than those of NaGSTNu” value in data set [3] is about 100 fold.

B4: Novosphingobium aromaticivorans BaeA (Saro_2872/Saro_2873 heterodimer, SEQ ID NO:40/SEQ ID NO:42) variant 2:S14A/3:S15A (Ser14 of Saro_2872 and Ser15 of … (protein)
chain 1: MSALLYHGEPNGAALTVLAALAETGLDIECRRIDLLAGERHSLPGIVDPVALDLSIEGEGPVLVIDGEAMTESVFLAQYLDEAAGGVGLQPTDAYARWEMMMWCRQITERLSPAAALLGNLATSQSAIAAIPAEDFAILAARIVSDDLRERWQALNDDAVNAAQVADSETKVAAAVDRCEKQLGDGREWLMGTFSIADLVTYSWLAGMEPLRPAAFADAPLVKAWLARTAARPCVQAALARATISEPLRAWAPGPEINRWG
chain 2: MDEVSLYHWEPNANAGKPMLALMEKGVPFSSHYIDMLQFDQHKPEYLAINPQGTIPAMTHNGQVLTESTAIMEYVNDRFDGPDLMPADAQDRWRVRWWMKFMDQWLGPSFSMIGWSVFVGPMVRQRDPAELAAAIDRIPLPERRTAWRKAINGDFSESEMAESRRRVGLGIAKLEEELGKRPYVGSNQYSLADINIFNSTYSLPISQPDLAGKDRTPNIMRWLKRVYTREAVKKTWAMGKTDLAHRYGLIMAEIEG
notes: His8 tag removed by TEV
On to B4, for which, in data set [6], the Km was 120 ± 30 µM, the kcat was determined as 2.8 ± 0.5 s⁻¹ and the kcat/Km worked out at 23000 ± 8000 M⁻¹ s⁻¹.

B5: Novosphingobium aromaticivorans DSM 12444 NaGSTNu (Saro_2595), Nu-class glutathione-S-transferase, wild type, SEQ ID NO:18; recombinant, residues 21-313 of SEQ … (protein)
chain: MSSEYVPPKVWKWDKANGGAFASVNRPVAGPTSERELPVGKHPFQVYSLGTPNGQKATIMLEELLQLGFSEAEYDAWLIKIFEGDQFTSGFVDINPNSKIPAMVDRSGPEPFRVFESGAILMHLAEKFGVFLPTSGPARAECLSWLFWQVGSAPFIGGGFGHFYNYAPIKIEYAIDRYAMETKRLFDVANRRLAESRYLAGDEYTIADLATYTWFGNIYRGEAYGEAATFLSMHEYEHVGRWVGEIDARPGVLRGRLVNSSKGLAERHDASDFDALPPESLQAIVKGF
notes: E. coli B834
For the molecule B5, in data set [7], the Km was 40 µM, the kcat was 80 s⁻¹ and the specificity constant (kcat/Km) was 1.9e+06 M⁻¹ s⁻¹. In data set [8], the Km stood at 8 µM, the kcat was 57 s⁻¹ and the specificity constant (kcat/Km) amounted to 8e+06 M⁻¹ s⁻¹.
